Laboratory results reported in patent US20250041325A1.

Molecular target: CXCR4 receptor on the surface of RIL-175 murine HCC cells (murine (endogenous on murine RIL-175 HCC cells)) (UniProt P70658)
Experiment: cell-based or functional assay

UniProt P70658, sequence (P70658 whole entry): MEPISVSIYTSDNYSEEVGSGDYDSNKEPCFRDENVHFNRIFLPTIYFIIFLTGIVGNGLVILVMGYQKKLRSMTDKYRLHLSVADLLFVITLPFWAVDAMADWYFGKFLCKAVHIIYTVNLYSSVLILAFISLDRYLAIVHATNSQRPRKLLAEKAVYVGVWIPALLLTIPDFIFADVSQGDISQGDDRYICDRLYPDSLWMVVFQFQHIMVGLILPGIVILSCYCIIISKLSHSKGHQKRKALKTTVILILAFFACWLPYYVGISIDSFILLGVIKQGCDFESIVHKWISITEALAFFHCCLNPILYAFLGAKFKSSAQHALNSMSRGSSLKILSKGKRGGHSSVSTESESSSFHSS

- cellular uptake in RIL-175 cells (flow cytometry of EGFP), 5% CTCE-EGFP NPs versus 5% SCP-EGFP NPs (scrambled peptide, SEQ ID NO: 2): > 15 fold
- mean fluorescence intensity of EGFP in transfected RIL-175 cells (flow cytometry), CTCE-EGFP NPs versus SCP-EGFP NPs: 4.5 fold
Substance: CTCE-9908 peptide conjugated to DSPE-PEG and displayed on polymer-lipid hybrid mRNA nanoparticles (DSPE-PEG-CTCE; CTCE-mRNA NPs)
